The numbers were not newly measured in publication PMC5007751, which cites them from elsewhere.

pKd: −log10 of the molar value.

The target in this series is RNA helicase A distal portion of helicase domain (Homo sapiens) (UniProt Q08211).
UniProt Q08211, sequence (Q08211 630-1020): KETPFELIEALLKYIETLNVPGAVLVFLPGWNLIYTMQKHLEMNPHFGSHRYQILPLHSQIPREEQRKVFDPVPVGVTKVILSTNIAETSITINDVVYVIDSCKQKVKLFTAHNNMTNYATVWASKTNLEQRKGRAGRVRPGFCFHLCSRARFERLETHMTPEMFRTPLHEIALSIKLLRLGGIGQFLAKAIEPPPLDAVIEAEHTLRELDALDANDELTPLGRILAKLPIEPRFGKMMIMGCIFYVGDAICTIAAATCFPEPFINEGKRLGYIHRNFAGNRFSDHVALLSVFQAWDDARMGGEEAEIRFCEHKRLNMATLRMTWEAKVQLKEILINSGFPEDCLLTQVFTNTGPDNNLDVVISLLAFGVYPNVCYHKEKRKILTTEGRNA

For the substance EWS/FLI (from UniProt Q01844), the pKd was 5.02.

As a reminder, the pKd is the negative decadic logarithm of the Kd, by convention in mol/L.
